B1: Hypermethylated in cancer 1 protein (Homo sapiens), Q14526 (parent)
chain: MTFPEADILLKSGECAGQTMLDTMEAPGHSRQLLLQLNNQRTKGFLCDVIIVVQNALFRAHKNVLAASSAYLKSLVVHDNLLNLDHDMVSPAVFRLVLDFIYTGRLADGAEAAAAAAVAPGAEPSLGAVLAAASYLQIPDLVALCKKRLKRHGKYCHLRGGGGGGGGYAPYGRPGRGLRAATPVIQACYPSPVGPPPPPAAEPPSGPEAAVNTHCAELYASGPGPAAALCASERRCSPLCGLDLSKKSPPGSAAPERPLAERELPPRPDSPPSAGPAAYKEPPLALPSLPPLPFQKLEEAAPPSDPFRGGSGSPGPEPPGRPDGPSLLYRWMKHEPGLGSYGDELGRERGSPSERCEERGGDAAVSPGGPPLGLAPPPRYPGSLDGPGAGGDGDDYKSSSEETGSSEDPSPPGGHLEGYPCPHLAYGEPESFGDNLYVCIPCGKGFPSSEQLNAHVEAHVEEEEALYGRAEAAEVAAGAAGLGPPFGGGGDKVAGAPGGLGELLRPYRCASCDKSYKDPATLRQHEKTHWLTRPYPCTICGKKFTQRGTMTRHMRSHLGLKPFACDACGMRFTRQYRLTEHMRIHSGEKPYECQVCGGKFAQQRNLISHMKMHAVGGAAGAAGALAGLGGLPGVPGPDGKGKLDFPEGVFAVARLTAEQLSLKQQDKAAAAELLAQTTHFLHDPKVALESLYPLAKFTAELGLSPDKAAEVLSQGAHLAAGPDGRTIDRFSPT

Variants of: B1
Conditions: with ctbp2_mouse Ctbp2, P56546
Chain of ctbp2_mouse Ctbp2, P56546 (P56546 whole entry): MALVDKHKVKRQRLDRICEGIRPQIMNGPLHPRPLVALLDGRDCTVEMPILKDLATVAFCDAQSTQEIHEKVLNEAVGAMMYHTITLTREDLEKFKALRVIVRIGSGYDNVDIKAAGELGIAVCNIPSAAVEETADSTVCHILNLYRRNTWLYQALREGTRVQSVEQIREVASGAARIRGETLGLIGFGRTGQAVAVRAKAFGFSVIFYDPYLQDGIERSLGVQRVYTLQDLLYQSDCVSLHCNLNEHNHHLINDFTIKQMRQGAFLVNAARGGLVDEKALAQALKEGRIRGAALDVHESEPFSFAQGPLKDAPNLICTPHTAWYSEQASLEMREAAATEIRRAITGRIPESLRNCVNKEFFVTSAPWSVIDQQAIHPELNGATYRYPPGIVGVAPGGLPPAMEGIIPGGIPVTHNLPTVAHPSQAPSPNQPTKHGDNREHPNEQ

Row | effect of a mutation on the interaction | Variant
1 | disrupting interaction | L244A

Variants of: B1
Conditions: with ctbp1_mouse Ctbp1, O88712

Row | effect of a mutation on the interaction | Variant
2 | disrupting interaction | L244A
